# Measured values as given in PMC10281602.
# T1: PbrNSC (Pyrus bretschneideri? (pear …, UniProt A0A5J6X514 1-400))
# T1 sequence: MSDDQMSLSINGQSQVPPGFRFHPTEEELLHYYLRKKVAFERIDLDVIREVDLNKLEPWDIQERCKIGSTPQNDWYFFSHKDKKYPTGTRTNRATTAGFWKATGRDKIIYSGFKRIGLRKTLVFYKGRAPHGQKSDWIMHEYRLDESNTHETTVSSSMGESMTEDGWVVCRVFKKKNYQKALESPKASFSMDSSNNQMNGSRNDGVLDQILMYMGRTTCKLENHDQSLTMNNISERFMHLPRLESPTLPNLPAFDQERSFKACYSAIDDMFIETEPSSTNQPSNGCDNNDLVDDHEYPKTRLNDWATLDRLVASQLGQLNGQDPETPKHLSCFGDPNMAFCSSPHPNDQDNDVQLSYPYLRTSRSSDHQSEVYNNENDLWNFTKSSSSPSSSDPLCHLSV
# T2: PbrARF13 (Pyrus bretschneideri? (pear …, UniProt UPI00202FA75D 49-757))
# T2 sequence: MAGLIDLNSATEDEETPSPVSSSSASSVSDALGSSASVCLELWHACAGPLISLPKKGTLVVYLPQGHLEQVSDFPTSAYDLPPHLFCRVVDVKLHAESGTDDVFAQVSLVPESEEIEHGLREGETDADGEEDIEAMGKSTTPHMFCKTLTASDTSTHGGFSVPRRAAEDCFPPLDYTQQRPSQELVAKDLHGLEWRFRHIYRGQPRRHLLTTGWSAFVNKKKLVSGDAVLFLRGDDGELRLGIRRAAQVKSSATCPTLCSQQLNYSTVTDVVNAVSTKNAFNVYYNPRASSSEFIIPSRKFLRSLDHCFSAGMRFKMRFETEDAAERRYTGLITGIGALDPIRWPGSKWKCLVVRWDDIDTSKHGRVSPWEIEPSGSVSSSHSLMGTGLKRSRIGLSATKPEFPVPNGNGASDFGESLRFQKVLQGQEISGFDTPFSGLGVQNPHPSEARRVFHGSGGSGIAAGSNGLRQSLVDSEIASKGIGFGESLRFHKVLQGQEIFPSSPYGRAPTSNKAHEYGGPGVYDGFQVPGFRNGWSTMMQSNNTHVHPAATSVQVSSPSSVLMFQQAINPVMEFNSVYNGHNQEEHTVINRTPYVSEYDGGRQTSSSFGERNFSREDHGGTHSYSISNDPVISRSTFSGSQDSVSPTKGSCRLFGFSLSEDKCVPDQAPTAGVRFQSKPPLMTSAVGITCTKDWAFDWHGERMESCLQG
# How the values were obtained:
# PbrNSC = target: T1, PbrNSC; experiment: EMSA
# PbrARF13 [1] = target: T2, PbrARF13; experiment: EMSA
# PbrARF13 [2] = target: T2, PbrARF13; experiment: competition
Binder,binding result (PbrARF13 [1]),also measured
SNBE probe (dsDNA) DNA 1: ATACTTGAAACCTAAGTAA DNA 2: TTACTTAGGTTTCAAGTAT,,binding result (PbrNSC): binds
AuxRE-2 probe (dsDNA) DNA 1: ATCATCTCTGTCTCTCTCTTGC DNA 2: GCAAGAGAGAGACAGAGATGAT,binds,
AuxRE-2 unlabelled competitor (dsDNA) DNA 1: ATCATCTCTGTCTCTCTCTTGC DNA 2: GCAAGAGAGAGACAGAGATGAT,,binding result (PbrARF13 [2]): binds
AuxRE-2 mutant probe (dsDNA) DNA 1: ATCATCTCGAGAGATCTCTTGC DNA 2: GCAAGAGATCTCTCGAGATGAT,no binding,
